The source of these data is PMC3039130 (Structure (London, England : 1993), 2011).

The target of this assay is T1, BirA-tagged, biotinylated mouse JAML ectodomain (Mus musculus, biotin on the BirA-tag (by BirA biotin protein ligase)).
T1 chain: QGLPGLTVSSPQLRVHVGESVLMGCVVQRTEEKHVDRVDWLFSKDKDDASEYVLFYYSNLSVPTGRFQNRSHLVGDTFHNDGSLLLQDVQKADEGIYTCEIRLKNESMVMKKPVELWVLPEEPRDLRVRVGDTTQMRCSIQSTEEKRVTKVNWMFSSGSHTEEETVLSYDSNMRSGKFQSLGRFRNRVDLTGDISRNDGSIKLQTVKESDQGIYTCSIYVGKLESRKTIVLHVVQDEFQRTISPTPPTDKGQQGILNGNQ
Description: SPR.

B1: HL4E10 Fab (fragment of the hamster anti-JAML IgG (λ) HL4E10) (Fab, V domains shown)
VH: QVQLKESGPGLLQPSQTLSLTCTVSGISLSDYGVHWVRQAPGKGLEWMGIIGHAGGTDYNSNLKSRVSISRDTSKSQVFLKLNSLQQEDTAMYFCARHFYTYFDVWGQGIQVTVSS
VL: SYTLTQPPLVSVALGQKATITCSGDKLSDVYVHWYQQKAGQAPVLVIYEDNRRPSGIPDHFSGSNSGNMATLTISKAQAGDEADYYCQSWDGTNSAWVFGSGTKVTVL
What is called Kd is the constant that tells how readily two partners part at equilibrium. Read a low Kd as a tighter complex. By koff is commonly meant the first-order rate constant of dissociation. As to B1, the Kd was ~8 nM and the koff is ~0.001 s⁻¹.
